Assay results taken from US20050142135A1, “Agents and methods for modulating interactions between gonadotropin hormones and receptors” (University of Kentucky Research Foundation, priority 2003, published 2005).
*1 amine or outer side, *2 acyl side, *3 side chain or, on linkers, in order; H or OH if unused. [ ]: non-standard residue; d: D form. The star is where a group is joined. ABG = 4-azidobenzoyl glycine, attached via its N-hydroxysuccinimide ester, [N-]=[N+]=Nc1ccc(C(=O)NCC(=O)*)cc1; Tyr(125I) = radioiodinated (125I) tyrosine, O=C([C@H](Cc1ccc(O[*:3])c([125I])c1)N[*:1])[*:2]

Assays:
[1] = test system: phospholipase A, phospholipase C, phospholipase D and urokinase; experiment: Labeling specificity of ABG-^125I-LHR^exo3 on other proteins; type: binding
Method: (§1) The mixtures were incubated at 37° C. for 90 minutes in the dark, irradiated with Mineralight R-52 UV lamp for 3 minutes as previously described, and solubilized in 2% SDS, 100 mM dithiothreitol and 8 M urea. The samples were electrophoresed on 8-12% polyacrylamide gradient gels. Gels were dried on filter paper and exposed to an imaging screen overnight, which was scanned on a phosphoimager. Exoloop 3 was modeled.

hCG = target: T1, hCG (Homo sapiens, UniProt P01215+P0DN86); experiment: Photoaffinity labeling of hCG with ABG-^125I-LHR^exo3; type: binding; settings: for inhibition of photoaffinity labeling of hCG by ABG-^125I-LHR^exo3: 4 mM of nonlabeled peptide
T1 construct: purchased National Hormone and Pituitary Program
T1 sequence (P01215 25-116, other chains not shown): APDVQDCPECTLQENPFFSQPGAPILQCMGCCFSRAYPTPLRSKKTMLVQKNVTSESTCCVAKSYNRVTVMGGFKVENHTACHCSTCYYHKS
Method: A peptide mimic corresponding to the LHR exoloop 3 sequence of K^573 […]^583 (LHR^exo3) was synthesized, to which a Tyr residue was attached to the C-terminus for radioiodination. The N-terminus of the peptide was acetylated and the C-terminus amidated. NHS-ABG was synthesized as previously described and freshly dissolved in dimethyl sulfoxide to a concentration of 50 mM. The reagent was diluted in 0.1 M sodium phosphate (pH 7.5) to a concentration of 20 mM. The reagent solution was immediately used to derivatize receptor peptides. In the dark, […] of NHS-ABG was added to […] of receptor peptides in […] of 0.1 M sodium phosphate (pH 7.5), and the mixture was incubated for 30 minutes at 25° C. […] After 20 seconds, 7 μl of sodium metabisulfite (2.5 mg/ml) in 10 mM Na2 HPO4, pH 7.4, was introduced to terminate radioiodination. Derivatized and radioiodinated ABG-^exo3 I-LHR^exo3 solution was mixed with 60 μl of 16% sucrose solution in PBS and fractionated on Sephadex Superfine G-10 column (0.6×15 cm) using PBS.
as §1

human LH = target: T2, human LH (Homo sapiens, UniProt P01215+P01229); experiment: Photoaffinity labeling of LH with ABG-^125I-LHR^exo3; type: binding; settings: increasing concentrations of LH
T2 construct: purchased National Hormone and Pituitary Program
T2 sequence (P01215 25-116): as the sequence (P01215 25-116, other chains not shown) above
T2 sequence (P01229 21-141): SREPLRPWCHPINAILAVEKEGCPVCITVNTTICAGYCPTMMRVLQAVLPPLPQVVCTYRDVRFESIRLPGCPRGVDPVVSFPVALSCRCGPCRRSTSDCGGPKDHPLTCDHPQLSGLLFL
Method: The samples were processed.
as §1

FSH [2] = target: T3, FSH (Homo sapiens, UniProt P01215+P01225); experiment: Photoaffinity labeling of FSH with exoloop 3 peptide (ABG-^125I-FSHR^exo3); type: binding; settings: increasing concentrations of unlabeled FSHR peptides
T3 construct: purchased National Hormone and Pituitary Program
T3 sequence (P01215 25-116): as the sequence (P01215 25-116, other chains not shown) above
T3 sequence (P01225 19-129): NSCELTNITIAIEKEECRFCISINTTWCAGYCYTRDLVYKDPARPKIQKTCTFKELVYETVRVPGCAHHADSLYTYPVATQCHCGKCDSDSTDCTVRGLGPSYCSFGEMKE
Method: A peptide mimic corresponding to the exoloop 3 sequence of K^580 […]^590 (FSHR exo3) (SEQ ID NO: 3) was synthesized, to which a Tyr residue was attached to the C-terminus for radioiodination. The N-terminus of the peptide was acetylated and the C-terminus amidated. NHS-ABG was synthesized as previously described and freshly dissolved in dimethyl sulfoxide to a concentration of 50 mM and NHS-ABG in 0.1 M sodium phosphate (pH 7.5) to a concentration of 20 mM. These reagent solutions were immediately used to derivatize receptor peptides. In the dark, 10 μl of NHS-ABG was added to […] of receptor peptides in 40 μl of 0.1 M sodium phosphate (pH 7.5). The mixture was incubated with NHS-ABG for 30 minutes at 25° C. […] After 20 sec, 7 μl of sodium metabisulfite (2.5 mg/ml) in 10 mM Na2 HPO4, pH 7.4, was introduced to terminate radioiodination.
Competitive inhibition experiments were carried out for the photoaffinity labeling experiments. 10 μl of PBS was introduced to each tube and the mixture was incubated with 10 μl of increasing concentrations of nonradioactive receptor peptides. The mixtures were incubated at 37° C. for 90 minutes in the dark, irradiated with Mineralight R-52 UV lamp for 3 minutes as previously described, and solubilized in 2% SDS, 100 mM dithiothreitol and 8 M urea. The samples were electrophoresed on 8-12% polyacrylamide gradient gels. […]

FSH [3] = target: T3, FSH; experiment: Photoaffinity labeling of FSH with ^125I-FSHR^9-40F13Bpa; type: binding; settings: increasing concentrations of nonradioactive peptide
Method: In the dark, 30 μg of receptor peptides in 40 μl of 0.1 M sodium phosphate (pH 7.5). The mixture was incubated for 30 minutes at 25° C. […] After 20 seconds, 7 μl of sodium metabisulfite (2.5 mg/ml) in 10 mM Na2HPO4, pH 7.4, was introduced to terminate radioiodination.
as §1, with “with a” for “with”, “minutes,” for “minutes as previously described,”, “phosphoimager (Molecular Dynamics).” for “phosphoimager. Exoloop 3 was modeled.”
The FSH α and β subunits co-migrate on SDS-PAGE. To separate them on the gel FSH was deglycosylated with PNGase F and after it was photoaffinity labeled. Enzymatic cleavage was done by incubation of the labeled FSH complex with 20 or 50 units of PNGase F (New England BioLabs, Inc., MA) in 40 μl for 18 hours at 37° C. The samples were solubilized in SDS under the reducing condition and electrophoresed on 15% gel containing 9 M urea.

FSHR = experiment: Inhibition of ^125I-FSH binding to the receptor on intact cells by exoloop 3 peptide; design: species or system human
Chain of FSHR (P23945 18-695): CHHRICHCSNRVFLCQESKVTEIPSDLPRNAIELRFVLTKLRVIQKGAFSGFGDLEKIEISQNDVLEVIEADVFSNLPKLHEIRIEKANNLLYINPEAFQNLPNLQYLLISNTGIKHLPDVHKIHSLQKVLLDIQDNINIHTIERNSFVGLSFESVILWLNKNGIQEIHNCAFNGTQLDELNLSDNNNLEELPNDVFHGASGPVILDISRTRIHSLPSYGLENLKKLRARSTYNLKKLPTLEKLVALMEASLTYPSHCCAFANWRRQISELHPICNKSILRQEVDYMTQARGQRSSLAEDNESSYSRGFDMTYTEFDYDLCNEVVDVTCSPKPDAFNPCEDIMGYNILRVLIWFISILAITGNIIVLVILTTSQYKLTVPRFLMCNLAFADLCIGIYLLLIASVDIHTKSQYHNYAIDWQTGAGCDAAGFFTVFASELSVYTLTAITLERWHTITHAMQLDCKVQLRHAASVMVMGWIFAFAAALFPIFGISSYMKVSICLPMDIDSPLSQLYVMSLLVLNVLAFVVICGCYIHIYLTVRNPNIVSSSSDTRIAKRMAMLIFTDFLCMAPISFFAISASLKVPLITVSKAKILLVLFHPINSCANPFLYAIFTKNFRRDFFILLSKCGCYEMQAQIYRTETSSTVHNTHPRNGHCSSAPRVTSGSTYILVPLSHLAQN
Method: The FSH a and b subunits separated in the lower band and upper band, respectively.
Human FSH (the National Hormone and Pituitary Program) was radioiodinated as previously described for radioiodination of hCG. […] The Kd values were determined by Scatchard plots. Truncated exodomain was solubilized in Nonidet P-40 and assayed for hormone binding as described previously. For intracellular cAMP assay, cells were washed twice with Dulbecco's modified Eagle's media and incubated in the media containing isobutylmethylxanthine (0.1 mg/ml) for 15 minutes. Increasing concentrations of FSH were then added and the incubation was continued for 45 minutes at 37° C. After removing the media, the cells were rinsed once with fresh media without isobutylmethylxanthine, lysed in 70% ethanol, freeze-thawed in liquid nitrogen, and scraped. […] Exoloop 3 of FSHR was modeled based on the crystal structure of rhodopsin as a template.

LHR = target: T4, LHR (Homo sapiens, UniProt P22888); experiment: Inhibition of ^125I-hCG binding to cells stably expressing LHR; settings: increasing concentrations of nonradioactive competitor
T4 construct: expressed in transfected cells
T4 sequence (P22888 27-699): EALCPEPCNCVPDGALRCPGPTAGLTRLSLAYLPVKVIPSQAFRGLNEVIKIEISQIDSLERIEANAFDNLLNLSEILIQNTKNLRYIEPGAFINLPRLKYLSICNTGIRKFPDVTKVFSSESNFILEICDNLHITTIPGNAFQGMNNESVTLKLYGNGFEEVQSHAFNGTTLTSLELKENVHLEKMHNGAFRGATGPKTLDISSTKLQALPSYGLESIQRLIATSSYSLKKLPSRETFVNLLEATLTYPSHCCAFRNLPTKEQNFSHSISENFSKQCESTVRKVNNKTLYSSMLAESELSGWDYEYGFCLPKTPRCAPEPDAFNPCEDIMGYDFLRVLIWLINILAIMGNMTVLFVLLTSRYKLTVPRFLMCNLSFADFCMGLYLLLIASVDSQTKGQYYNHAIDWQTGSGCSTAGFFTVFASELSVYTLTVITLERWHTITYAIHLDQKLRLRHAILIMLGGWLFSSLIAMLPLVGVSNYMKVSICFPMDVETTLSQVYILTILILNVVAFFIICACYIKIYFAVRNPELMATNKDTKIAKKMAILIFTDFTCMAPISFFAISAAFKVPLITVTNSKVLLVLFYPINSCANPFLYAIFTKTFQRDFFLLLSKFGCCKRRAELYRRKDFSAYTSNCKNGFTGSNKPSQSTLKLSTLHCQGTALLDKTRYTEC
Method: The cells were washed and bound radioactivity was measured.
The Kd values were determined by Scatchard plots. For intracellular cAMP assay, cells were washed twice with Dulbecco's modified Eagle's media and incubated in the media containing isobutylmethylxanthine (0.1 mg/ml) for 15 minutes. Increasing concentrations of hormone were then added and the incubation was continued for 45 minutes at 37° C. After removing the media, the cells were rinsed once with fresh media without isobutylmethylxanthine, lysed in 70% ethanol, freeze-thawed in liquid nitrogen, and scraped.

human LHR = experiment: Inositol phosphate assay, LHR exoloop 3 mutants in HEK 293 cells, hCG stimulated; type: cell-based; settings: NS = not significant
Chain of human LHR (P22888 27-363 limits assumed): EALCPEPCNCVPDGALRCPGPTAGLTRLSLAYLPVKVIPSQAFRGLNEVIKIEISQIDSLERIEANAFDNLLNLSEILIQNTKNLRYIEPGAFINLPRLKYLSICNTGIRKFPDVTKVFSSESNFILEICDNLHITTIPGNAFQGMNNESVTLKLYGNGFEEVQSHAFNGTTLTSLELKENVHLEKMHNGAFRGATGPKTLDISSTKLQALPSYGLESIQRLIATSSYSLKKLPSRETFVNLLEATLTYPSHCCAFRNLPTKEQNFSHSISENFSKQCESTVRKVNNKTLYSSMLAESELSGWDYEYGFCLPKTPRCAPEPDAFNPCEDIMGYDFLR
Method: Stable cells were plated in 12 well plates and grown in inositol free DMEM (Atlanta Biologicals) supplemented with 8% heat-inactivated horse serum and […] [^3H]inositol (NEN) for 48 hours to 40-50% confluency. After removing the medium, the cells were incubated in 1 ml of fresh wash buffer consisting of DMEM w/o inositol and 15 mM HEPES (pH 7.3) for 1 hour at 37° C. This medium was removed and 0.3 ml wash buffer containing 20 mM LiCl was added and incubated for 15 minutes at 37° C. After the cells were stimulated with increasing concentrations of hormone for 30 minutes at 37° C., the incubation was terminated by the removal of medium and the addition of 0.25 ml of 0.6 N HCl to each well. The cells were scraped, transferred into microcentrifuge tubes and the wells were again washed with 0.25 ml of 0.6 N HCl. The combined washes were treated with 0.9 ml of a mixture of chloroform:methanol (2:1), vortexed and centrifuged at 1000×g for 5 minutes at room temperature. The top aqueous layer, which was free of phospholipids, was removed and the remaining chloroform layer treated with 0.2 ml of methanol:water (1:1), vortexed and centrifuged, as above. This aqueous layer was added to the previous aqueous layer and the samples dried in a vacuum concentrator. […] Aliquots of 200 μl were counted for radioactivity in 1.5 ml of Ultima AF scintillation fluid (Packard). […]

Substance: ABG-^125I-LHR^exo3: LHR exoloop 3 peptide derivatized with N-hydroxysuccinimide of 4-azidobenzoyl glycine and radio-iodinated (Ac-KVPLITVTNSK(ABG)[Tyr(125I)]-NH2; also: derivatized with N-hydroxysuccinimide ester of 4-azidobenzoyl glycine, radio-iodinated (125I))
- photoaffinity labeling of phospholipase A, phospholipase C, phospholipase D and urokinase [1]: not photoaffinity labeled
- labeled hCG subunits (hCG): the a band labeled slightly more than the β band
- hCG concentration at which the maximum labeling was reached (hCG; both hormone subunits, constant amount of probe): 50 nM
- photoaffinity labeling of denatured hCG (hCG; hCG boiled in 8 M urea): not labeled at all
- photoaffinity labeling of LH subunits (human LH): Both of the α and β subunits of LH were labeled

Substance: FSHR^9-40: peptide mimic of FSH receptor sequence S9-K40, SNRVFLCQESKVTEIPSDLPRNAIELRFVLTK (SEQ ID NO: 2) (Ac-YSNRVFLCQESKVTEIPSDLPRNAIELRFVLTK-NH2; not fully specified (some residues); printed as S9NRVFLCQESKVTEIPSDLPRNAIELRFVLTK40)
- inhibition of photoaffinity labeling of FSH by ^125I-ABG-FSHR^exo3 (FSH [2]): inhibited the photoaffinity labeling in a dose dependent manner
- inhibition of photoaffinity labeling of FSH by ^125I-FSHR^9-40F13Bpa (FSH [3]): inhibited the photoaffinity labeling in a dose dependent manner

Substance: FSHR^exo3: peptide mimic of FSHR exoloop 3, KVPLITVSKAK (SEQ ID NO: 3), C-terminal Tyr, N-acetylated, C-amidated (Ac-KVPLITVSKAKY-NH2)
- inhibition of photoaffinity labeling of FSH by ^125I-ABG-FSHR^exo3 (FSH [2]): inhibited the photoaffinity labeling in a dose dependent manner
- inhibition of ^125I-FSH binding to the receptor on intact cells (FSHR): inhibited ^125I-FSH binding to the receptor on intact cells in a dose dependent manner

Substance: LHR^18-36: N-terminal peptide of the LHR exodomain (CPGPTAGLTRLSLAYLPVK)
- inhibition of photoaffinity labeling of hCG by ABG-^125I-LHR^exo3 (hCG): failed to inhibit the labeling

Substance: LHR^exo3: peptide mimic of LHR exoloop 3, KVPLITVTNSK, C-terminal Tyr, N-acetylated, C-amidated (Ac-KVPLITVTNSKY-NH2)
- inhibition of photoaffinity labeling of hCG by ABG-^125I-LHR^exo3 (hCG): blocked the labeling
- inhibition of ^125I-hCG binding to LHR (LHR): inhibited ^125I-hCG binding to LHR

Substance: Wildtype: wild type human LH receptor expressed in HEK 293 cells (Table II)
- IP1 (cpm) (human LHR): 13,780-w cpm
